Assay results taken from patent publication CN111253486A (ZAI LAB SHANGHAI CO LTD, dated 2020).

Target: T1, human PD-1-his (recombinant human PD-1 extracellular domain with C-terminal polyhistidine tag) (human, UniProt Q15116 25-170)
T1 construct: extracellular domain; also called 人PD-1-his; hPD-1蛋白
Assay: SPR (Biacore 8K), antibody captured, antigen injected

T1 sequence (Q15116 25-170): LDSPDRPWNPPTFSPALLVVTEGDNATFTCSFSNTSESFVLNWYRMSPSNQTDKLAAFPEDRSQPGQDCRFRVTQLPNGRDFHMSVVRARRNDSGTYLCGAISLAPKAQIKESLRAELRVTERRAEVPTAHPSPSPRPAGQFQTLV

| Binder | Kd [nM] | koff [s⁻¹] | kon [M⁻¹ s⁻¹] |
| --- | --- | --- | --- |
| murine anti-PD-1 antibody 31G1E10 (antibody, V domains shown) VH: EVKLVESGGGLVKPGGSLKLSCAASGFTFSSYGMSWVRQTPEKRLEWVATISGGGRDTYYPDSVKGRFTISRDNAKNNLYLQMNNLRSEDTALYYCARQRDSAWFAHWGQGTRVTVSA VL: not shown | 1.16 | 0.000198 | 171000 |
| murine anti-PD-1 antibody 56B3C11 (antibody, V domains shown) VH: EVMLVESGGGLVQPGGSLKLSCAASGFTFNSYTMSWVRQTPEKRLEWVAYISFGGGDTYYPDTVKGRFTISRDNAKNTLYLQMNSLKSEDTAMYYCARQGNYEGAPFAYWGQGTLVTVSA VL: DIQMTQTTSSLSASLGDRVTISCRASQDISNFLNWYQLKPDGTIKLLIYYTSRLHSGVPSRFSGSGSGTDYSLTITDLEQEDIATYLCQQGDMIPWTFGGGTKLEIK | 2.43 | 0.000295 | 122000 |
